These are literature values, as cited in US8021659B2, “Coenzyme Q10, lactoferrin and angiogenin compositions and uses thereof” (Naidu LP, priority 2006, dated 2011).

The test system of data set [1] is osteoblasts. As to conditions: up to.

B1: LF: 79-kDa glycoprotein present in every mucosal secretion of the human body; metal-transport protein (protein, UniProt P02788 20-710, looked up)
Lactotransferrin: GRRRSVQWCAVSQPEATKCFQWQRNMRKVRGPPVSCIKRDSPIQCIQAIAENRADAVTLDGGFIYEAGLAPYKLRPVAAEVYGTERQPRTHYYAVAVVKKGGSFQLNELQGLKSCHTGLRRTAGWNVPIGTLRPFLNWTGPPEPIEAAVARFFSASCVPGADKGQFPNLCRLCAGTGENKCAFSSQEPYFSYSGAFKCLRDGAGDVAFIRESTVFEDLSDEAERDEYELLCPDNTRKPVDKFKDCHLARVPSHAVVARSVNGKEDAIWNLLRQAQEKFGKDKSPKFQLFGSPSGQKDLLFKDSAIGFSRVPPRIDSGLYLGSGYFTAIQNLRKSEEEVAARRARVVWCAVGEQELRKCNQWSGLSEGSVTCSSASTTEDCIALVLKGEADAMSLDGGYVYTAGKCGLVPVLAENYKSQQSSDPDPNCVDRPVEGYLAVAVVRRSDTSLTWNSVKGKKSCHTAVDRTAGWNIPMGLLFNQTGSCKFDEYFSQSCAPGSDPRSNLCALCIGDEQGENKCVPNSNERYYGYTGAFRCLAENAGDVAFVKDVTVLQNTDGNNNEAWAKDLKLADFALLCLDGKRKPVTEARSCHLAMAPNHAVVSRMDKVERLKQVLLHQQAKFGRNGSDCPDKFCLFQSETKNLLFNDNTECLARLHGKTTYEKYLGPQYVAGITNLKKCSTSPLLEACEFLRK
Take B1: the “time to peak level in plasma” value (absorption in the intestinal tract) is listed as at most 2 h. Further, the “mean fractional catabolic rate” value (elimination from the plasma by liver and spleen) is 5.7 day⁻¹. Also, the “reduction of the rate at which osteoblasts die” value in data set [1] is given as 50-70%.
